Biological target: the molecule itself
Assay: crystal structure

B1: Streptococcus pneumoniae pyruvate kinase (enzyme)
chain: MNKRVKIVATLGPAVEIRGGKKFGEDGYWGEKLDVEASAKNIAKLIEAGANTFRFNFSHGDHQEQGERMATVKLAEKIAGKKVGFLLDTKGPEIRTELFEGEAKEYSYKTGEKIRVATKQGIKSTREVIALNVAGALDIYDDVEVGRQVLVDDGKLGLRVVAKDDATREFEVEVENDGIIAKQKGVNIPNTKIPFPALAERDNDDIRFGLEQGINFIAISFVRTAKDVNEVRAICEETGNGHVQLFAKIENQQGIDNLDEIIEAADGIMIARGDMGIEVPFEMVPVYQKMIIKKVNAAGKVVITATNMLETMTEKPRATRSEVSDVFNAVIDGTDATMLSGESANGKYPLESVTTMATIDKNAQALLNEYGRLDSDSFERNSKTEVMASAVKDATSSMDIKLVVTLTKTGHTARLISKYRPNADILALTFDELTERGLMLNWGVIPMLTDAPSSTDDMFEIAERKAVEAGLVESGDDIVIVAGVPVGEAVRTNTMRIRTVR
Question: Which “stoichiometry N” value does the source give for B1 here?
Answer: 4

— article doi:10.1101/2024.06.25.600556 (bioRxiv, 2024)
